Data from paper PMC11870458.

How the values were obtained:
[1] = target: VsCoV-a7 RBD-human IgG Fc fusion (VsCoV-a7 (bat MERSr-CoV from Vespertilio sinensis, Japan)); assay: BLI
[2] = target: HsItaly2011 RBD-human IgG Fc fusion (HsItaly2011 (bat MERSr-CoV from Hypsugo savii, Italy)); assay: BLI

Substance	Kd [1] [nM]	Kd [2] [nM]
soluble dimeric E.fus ACE2 ectodomain (domain or fragment)	816	
soluble dimeric R.nor ACE2 ectodomain (from UniProt Q5EGZ1 18-740) (domain or fragment)		121
